Test results reported in patent US20100068151A1 (published 2010).

B1: VEGF121/rGel fusion toxin (other)
chain: APMAEGGGQNHHEVVKFMDVYQRSYCHPIETLVDIFQEYPDEIEYIFKPSCVPLMRCGGCCNDEGLECVPTEESNITMQIMRIKPHQGQHIGEMSFLQHNKCECRPKKDRARQEKCDKPRRGGGGSGLDTVSFSTKGATYITYVNFLNELRVKLKPEGNSHGIPLLRKKCDDPGKCFVLVALSNDNGQLAEIAIDVTSVYVVGYQVRNRSYFFKDAPDAAYEGLFKNTIKTRLHFGGSYPSLEGEKAYRETTDLGIEPLRIGIKKLDENAIDNYKPTEIASSLLVVIQMVSEAARFTFIENQIRNNFQQRIRPANNTISLENKWGKLSFQIRTSGANGMFSEAVELERANGKKYYVTAVDQVKPKIALLKFVDKDPK
notes: Described as an 84-kDa fusion protein made as in Veenendaal et al., 2002; also called vasculature-targeting fusion protein
B2: DOTA-VEGF121/rGel conjugate (other)
chain: B1 chain
modifications: DOTA chelator conjugated, 3.3±0.1 DOTA molecules per VEGF121/rGel molecule; sites not stated

Biological target: T1, VEGFR-2 expressed on PAE/KDR cells (human, UniProt P35968 20-1356)
T1 construct: whole, on cells
T1 sequence (P35968 20-1356): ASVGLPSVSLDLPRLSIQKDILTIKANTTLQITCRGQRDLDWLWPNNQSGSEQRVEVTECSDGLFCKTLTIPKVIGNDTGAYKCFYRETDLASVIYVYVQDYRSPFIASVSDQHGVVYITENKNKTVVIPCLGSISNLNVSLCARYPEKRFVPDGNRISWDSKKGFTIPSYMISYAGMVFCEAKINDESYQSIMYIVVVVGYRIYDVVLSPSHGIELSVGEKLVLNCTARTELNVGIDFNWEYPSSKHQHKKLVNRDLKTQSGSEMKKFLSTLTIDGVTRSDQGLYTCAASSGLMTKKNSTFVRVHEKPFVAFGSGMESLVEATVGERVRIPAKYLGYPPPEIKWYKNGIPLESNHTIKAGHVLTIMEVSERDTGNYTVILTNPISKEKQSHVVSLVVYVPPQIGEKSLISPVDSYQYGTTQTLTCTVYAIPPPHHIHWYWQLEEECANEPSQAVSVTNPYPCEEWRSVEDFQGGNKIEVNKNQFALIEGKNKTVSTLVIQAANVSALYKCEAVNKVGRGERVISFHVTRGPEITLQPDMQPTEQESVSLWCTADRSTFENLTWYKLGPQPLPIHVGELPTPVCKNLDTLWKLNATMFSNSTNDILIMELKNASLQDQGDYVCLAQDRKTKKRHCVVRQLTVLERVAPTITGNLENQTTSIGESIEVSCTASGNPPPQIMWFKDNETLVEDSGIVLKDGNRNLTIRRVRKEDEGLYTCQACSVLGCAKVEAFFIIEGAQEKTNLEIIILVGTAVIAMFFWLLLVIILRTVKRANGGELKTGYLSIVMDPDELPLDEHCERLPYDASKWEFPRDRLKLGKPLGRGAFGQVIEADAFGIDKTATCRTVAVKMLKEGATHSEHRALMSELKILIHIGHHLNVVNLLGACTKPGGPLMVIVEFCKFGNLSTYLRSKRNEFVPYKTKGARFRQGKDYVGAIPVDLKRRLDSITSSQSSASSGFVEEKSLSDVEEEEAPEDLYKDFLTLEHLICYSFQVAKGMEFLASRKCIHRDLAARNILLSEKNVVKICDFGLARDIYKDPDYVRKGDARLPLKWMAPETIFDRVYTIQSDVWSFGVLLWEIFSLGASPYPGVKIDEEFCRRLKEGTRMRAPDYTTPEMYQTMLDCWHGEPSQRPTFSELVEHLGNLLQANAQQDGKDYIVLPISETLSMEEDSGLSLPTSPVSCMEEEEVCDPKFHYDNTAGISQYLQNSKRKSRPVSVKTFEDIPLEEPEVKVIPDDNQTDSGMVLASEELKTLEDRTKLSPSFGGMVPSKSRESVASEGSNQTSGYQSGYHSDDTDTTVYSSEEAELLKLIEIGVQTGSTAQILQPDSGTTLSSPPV
Assay: cell-binding assay, displacement of 125I-VEGF165 from PAE/KDR cells

Binder	IC50 [nM]
B1	24.5
B2	40.6
